Where no end group is shown, it is not given here. The star is where a group is joined. 5FAM = O=C1OC2(c3ccc(O)cc3Oc3cc(O)ccc32)c2ccc(C(=O)*)cc21

For assay [1], the target named is T1, His10-Flag3-TEV-MTA1 162-546 (UniProt Q13330 162-546).
T1 construct: MTA1 residues 162-546 (ELM2 and SANT domains and an additional domain that recruits RBBP4); The complex was captured by the Flag tag and then cut from the resin with TEV before gel filtration; also called FLAG-MTA1 162-546; MTA1-long; source: HEK293F, co-transfected, purified on FLAG resin, TEV cleavage, gel filtration; not shown: His10, N-terminal, kept; Flag3, N-terminal, kept
T1 sequence (looked up): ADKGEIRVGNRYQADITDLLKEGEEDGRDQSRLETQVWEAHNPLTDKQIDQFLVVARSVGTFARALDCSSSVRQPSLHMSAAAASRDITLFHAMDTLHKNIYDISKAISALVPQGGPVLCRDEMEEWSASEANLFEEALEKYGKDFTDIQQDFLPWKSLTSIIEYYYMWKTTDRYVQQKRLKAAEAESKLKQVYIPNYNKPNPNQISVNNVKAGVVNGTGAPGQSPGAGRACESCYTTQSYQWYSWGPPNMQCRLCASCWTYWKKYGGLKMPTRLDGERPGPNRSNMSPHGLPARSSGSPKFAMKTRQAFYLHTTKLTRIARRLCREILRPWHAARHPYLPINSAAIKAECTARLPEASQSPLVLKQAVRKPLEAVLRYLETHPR
Description: co-IP + SEC; co-expression in HEK293F of His10-Flag3-TEV-MTA1 162-546 with untagged HDAC1, RBBP4 and PWWP2A 1-373; FLAG resin, TEV cleavage, Superdex S200 in 25 mM Tris-Cl pH 7.5, 50 mM potassium acetate, 0.5 mM TCEP; SDS-PAGE. To be noted: partners not purified.

Assay [2] has as its target T2, HDAC1:MTA1 162–354 complex (UniProt Q13547 1-482; Q13330 162-354).
T2 construct: HDAC1, untagged; MTA1 residues 162-354; Unlabelled complex formed beforehand, used in the anisotropy titration; also called MTA1:HDAC1 complex; HM; source: HEK293F, co-transfected, purified (FLAG resin, TEV cleavage, gel filtration); not shown: His10, N-terminal, cleaved; Flag3, N-terminal, cleaved
Description: fluorescence polarisation; fluorescence anisotropy of 5-FAM PWWP2A peptide with unlabelled HDAC1:MTA1 162-354 complex; room temperature; 50 mM Tris pH 7.5, 150 mM KAc, 0.15 mg/mL BSA, 0.03% Tween-20; excitation 480 nm, emission 535 nm. Conditions: both partners purified. (Polarisation of emitted light reports the rotation of a fluorescent probe.)

T2 sequence (Q13547 whole entry, chain 1 of 2, one chain of several, the tested form may be a part): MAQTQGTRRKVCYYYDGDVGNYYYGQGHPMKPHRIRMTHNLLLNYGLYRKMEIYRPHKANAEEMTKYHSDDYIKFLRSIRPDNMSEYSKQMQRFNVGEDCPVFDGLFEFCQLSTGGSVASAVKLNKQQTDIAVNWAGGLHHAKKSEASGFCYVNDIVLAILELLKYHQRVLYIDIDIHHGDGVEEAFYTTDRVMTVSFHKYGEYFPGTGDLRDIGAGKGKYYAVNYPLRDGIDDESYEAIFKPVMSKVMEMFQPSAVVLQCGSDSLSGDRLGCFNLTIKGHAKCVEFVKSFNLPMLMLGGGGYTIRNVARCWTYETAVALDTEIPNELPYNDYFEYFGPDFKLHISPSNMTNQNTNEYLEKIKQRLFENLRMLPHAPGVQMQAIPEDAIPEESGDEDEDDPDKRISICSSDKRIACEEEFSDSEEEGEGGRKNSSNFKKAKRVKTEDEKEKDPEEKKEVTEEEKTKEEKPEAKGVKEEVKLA

B1: PWWP2A1–373, untagged, co-expressed in HEK293F cells (domain or fragment, UniProt Q96N64 1-373, looked up)
chain: MAAVAAEAAATAASPGEGGAGEAEPEMEPIPGSEAGTDPLPVTATEASVPDGETDGQQSAPQADEPPLPPPPPPPGELARSPEAVGPELEAEEKLSVRVAESAAAAPQGGPELPPSPASPPEQPPAPEEREEPPLPQPVAPALVPPAGGDSTVSQLIPGSEVRVTLDHIIEDALVVSFRFGEKLFSGVLMDLSKRFGPHGIPVTVFPKREYKDKPEAMPLQSNTFQEGTEVKCEANGAVPDDPSPVPHPELSLAESLWTSKPPPLFHEGAPYPPPLFIRDTYNQSIPQPPPRKIKRPKRKMYREEPTSIMNAIKLRPRQVLCDKCKNSVVAEKKEIRKGSSATDSSKYEDKKRRNESVTTVNKKLKTDHKVDG
notes: source: HEK293F, co-transfected, co-purified with FLAG-MTA1 (FLAG resin, gel filtration)
With B1, the stoichiometry N (as a rule, the number of molecules, sites or subunits per partner or assembly) in assay [1] was roughly 1.

B2: fluorescein-labelled PWWP2A peptide (residues 311–325) (peptide, UniProt Q96N64 311-325, looked up)
peptide: 5FAM-NAIKLRPRQVLCDKC
modifications: cysteine pairing not given here
notes: PWWP2A residues 311-325, contains the motif R/QPRQV/L; source: synthetic peptide (Cambridge Research Biochemicals)
As to B2, in assay [2], the Kd (commonly the constant that tells how readily two partners part at equilibrium) lay in the range of 20 to 100 µM.

The record behind these values is PMC6143588, “A variant NuRD complex containing PWWP2A/B excludes MBD2/3 to regulate transcription at active genes” (Nature Communications, 2018).
